Reference: US20180057604A1 (Genentech, published 2018)
Where two headings read alike, the source gives them in different places. Values belong to the binder of their own block, whether it stands above or below them.

Legend:
human BACE1 ECD [1] = molecular target: T1, human BACE1 ECD; assay: Octet, pH 5.0;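 note: antibodies captured on anti-human capture sensor tips, dissociation monitored in PBS with BSA buffer, kinetics fitted with a one-to-one binding model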
T1 construct: analyte of the Octet assay (200 nM) and enzyme of the first short substrate assay; also called human BACE1 extracellular domain

murine BACE1 ECD [2] = molecular target: T2, murine BACE1 ECD; assay: Octet, pH 5.0;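 note: antibodies captured on anti-human capture sensor tips, dissociation monitored in PBS with BSA buffer, kinetics fitted with a one-to-one binding model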
T2 construct: analyte of the Octet assay (200 nM) and enzyme of the first short substrate assay

human BACE1 ECD [3] = molecular target: T1, human BACE1 ECD; assay: Octet, pH 7.5
murine BACE1 ECD [4] = molecular target: T2, murine BACE1 ECD; assay: Octet, pH 7.5
[5] = molecular target: T3, BACE1 in primary mouse cortical neurons (mouse, UniProt P56818 46-501); assay: cell-based or functional assay
[6] = molecular target: T4, human TfR extracellular domain with N-terminal His tag (human, UniProt P02786 89-760); assay: SPR, TfR captured by anti-His, Fab injected;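 note: single cycle kinetics with a Fab dilution series, fitted by a one-to-one Langmuir model or a steady state model, KD taken as koff over kon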
T4 construct: Biotinylated in some assays; also called huTfR; HuTfR

[7] = molecular target: T5, cyno TfR extracellular domain (analogous construct to human TfR ecd) (cynomolgus monkey, UniProt Q5RDH6 87-760 (Pongo abelii entry)); assay: SPR, TfR captured by anti-His, Fab injected;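 note: single cycle kinetics with a Fab dilution series, fitted by a one-to-one Langmuir model or a steady state model, KD taken as koff over kon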
T5 construct: also called cynoTfR ecd
T5 chain: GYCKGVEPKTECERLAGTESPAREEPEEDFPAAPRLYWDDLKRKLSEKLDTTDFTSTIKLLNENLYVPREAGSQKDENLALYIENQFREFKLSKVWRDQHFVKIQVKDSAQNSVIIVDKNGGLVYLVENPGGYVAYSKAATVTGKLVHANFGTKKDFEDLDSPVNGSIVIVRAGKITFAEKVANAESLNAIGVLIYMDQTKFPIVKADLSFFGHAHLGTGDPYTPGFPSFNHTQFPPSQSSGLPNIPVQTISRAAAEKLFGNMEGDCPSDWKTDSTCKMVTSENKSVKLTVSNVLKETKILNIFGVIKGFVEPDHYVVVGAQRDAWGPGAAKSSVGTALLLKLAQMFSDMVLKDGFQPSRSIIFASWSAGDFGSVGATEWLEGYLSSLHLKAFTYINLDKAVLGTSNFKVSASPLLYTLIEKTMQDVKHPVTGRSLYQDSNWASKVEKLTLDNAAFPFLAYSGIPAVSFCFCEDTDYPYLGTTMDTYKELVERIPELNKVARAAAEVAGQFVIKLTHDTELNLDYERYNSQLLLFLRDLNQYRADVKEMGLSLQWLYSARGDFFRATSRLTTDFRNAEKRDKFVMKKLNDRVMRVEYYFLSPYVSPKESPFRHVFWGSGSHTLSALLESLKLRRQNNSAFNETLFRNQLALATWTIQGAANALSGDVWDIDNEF

[8] = molecular target: T4, human TfR extracellular domain with …; assay: ELISA, IgG;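 note: ELISA of IgG-containing supernatants tested in 1:5 serial dilutions for 1 h, bound antibody read out with HRP anti-kappa antibody and TMB substrate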
[9] = molecular target: T5, cyno TfR extracellular domain …; assay: ELISA, IgG;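 note: ELISA of IgG-containing supernatants tested in 1:5 serial dilutions for 1 h, bound antibody read out with HRP anti-kappa antibody and TMB substrate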
[10] = molecular target: BACE1 (HTRF long substrate and FRET short substrate assays of Example 9D); assay: cell-based or functional assay
[11] = molecular target: T3, BACE1 in primary mouse cortical neurons; assay: cell-based or functional assay; remark: listed apart in the source
human BACE1 ECD [12] = molecular target: T1, human BACE1 ECD; assay: Octet, pH 5.0; remark: listed apart in the source;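 note: antibodies captured on anti-human capture sensor tips, dissociation monitored in PBS with BSA buffer, kinetics fitted with a one-to-one binding model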
human BACE1 ECD [13] = molecular target: T1, human BACE1 ECD; assay: Octet, pH 7.5; remark: listed apart in the source
murine BACE1 ECD [14] = molecular target: T2, murine BACE1 ECD; assay: Octet, pH 7.5; remark: listed apart in the source

T3 sequence (P56818 46-501): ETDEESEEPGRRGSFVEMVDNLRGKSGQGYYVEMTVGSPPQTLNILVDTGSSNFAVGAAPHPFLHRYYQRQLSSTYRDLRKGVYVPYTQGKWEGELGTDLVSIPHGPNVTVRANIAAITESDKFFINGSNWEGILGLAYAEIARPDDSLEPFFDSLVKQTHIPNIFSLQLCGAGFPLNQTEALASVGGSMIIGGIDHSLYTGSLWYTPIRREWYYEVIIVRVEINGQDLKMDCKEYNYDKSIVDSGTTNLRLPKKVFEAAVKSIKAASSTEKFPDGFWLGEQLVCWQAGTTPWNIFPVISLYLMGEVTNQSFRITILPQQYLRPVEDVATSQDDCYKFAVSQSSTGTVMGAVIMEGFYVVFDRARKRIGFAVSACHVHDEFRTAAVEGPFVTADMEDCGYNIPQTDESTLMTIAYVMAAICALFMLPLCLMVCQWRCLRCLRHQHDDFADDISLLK
T4 sequence (P02786 89-760 G142S): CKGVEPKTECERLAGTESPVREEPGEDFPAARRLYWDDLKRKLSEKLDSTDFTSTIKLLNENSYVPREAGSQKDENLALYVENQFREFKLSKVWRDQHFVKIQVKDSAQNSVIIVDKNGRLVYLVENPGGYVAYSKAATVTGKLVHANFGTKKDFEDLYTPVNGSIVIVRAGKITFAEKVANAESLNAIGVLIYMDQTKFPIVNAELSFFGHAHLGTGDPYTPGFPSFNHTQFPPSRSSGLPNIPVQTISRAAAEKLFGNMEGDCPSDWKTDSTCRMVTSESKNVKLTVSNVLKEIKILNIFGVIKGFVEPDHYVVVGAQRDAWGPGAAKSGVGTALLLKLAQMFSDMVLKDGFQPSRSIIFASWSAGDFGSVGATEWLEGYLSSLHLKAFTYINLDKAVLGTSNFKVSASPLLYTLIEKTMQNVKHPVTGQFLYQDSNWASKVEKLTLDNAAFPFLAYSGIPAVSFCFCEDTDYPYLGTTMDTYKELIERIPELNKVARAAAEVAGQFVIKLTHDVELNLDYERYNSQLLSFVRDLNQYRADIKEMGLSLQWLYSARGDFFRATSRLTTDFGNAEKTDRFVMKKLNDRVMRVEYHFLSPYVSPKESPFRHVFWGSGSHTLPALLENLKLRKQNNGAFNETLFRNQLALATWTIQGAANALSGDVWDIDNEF
T2 sequence (single chain, as listed by the source limits assumed): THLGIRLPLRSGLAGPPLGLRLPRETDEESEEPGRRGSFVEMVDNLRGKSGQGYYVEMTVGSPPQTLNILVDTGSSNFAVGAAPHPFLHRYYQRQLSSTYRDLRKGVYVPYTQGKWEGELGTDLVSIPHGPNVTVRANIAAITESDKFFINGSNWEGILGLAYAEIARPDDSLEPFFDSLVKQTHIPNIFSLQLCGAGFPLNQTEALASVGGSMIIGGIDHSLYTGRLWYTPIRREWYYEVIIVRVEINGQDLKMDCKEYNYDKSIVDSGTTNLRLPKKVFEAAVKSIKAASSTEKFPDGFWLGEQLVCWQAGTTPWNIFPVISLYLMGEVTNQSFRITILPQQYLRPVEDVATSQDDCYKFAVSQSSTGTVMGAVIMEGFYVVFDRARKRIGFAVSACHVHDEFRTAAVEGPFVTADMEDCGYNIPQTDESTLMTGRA
T1 sequence (single chain, as listed by the source limits assumed): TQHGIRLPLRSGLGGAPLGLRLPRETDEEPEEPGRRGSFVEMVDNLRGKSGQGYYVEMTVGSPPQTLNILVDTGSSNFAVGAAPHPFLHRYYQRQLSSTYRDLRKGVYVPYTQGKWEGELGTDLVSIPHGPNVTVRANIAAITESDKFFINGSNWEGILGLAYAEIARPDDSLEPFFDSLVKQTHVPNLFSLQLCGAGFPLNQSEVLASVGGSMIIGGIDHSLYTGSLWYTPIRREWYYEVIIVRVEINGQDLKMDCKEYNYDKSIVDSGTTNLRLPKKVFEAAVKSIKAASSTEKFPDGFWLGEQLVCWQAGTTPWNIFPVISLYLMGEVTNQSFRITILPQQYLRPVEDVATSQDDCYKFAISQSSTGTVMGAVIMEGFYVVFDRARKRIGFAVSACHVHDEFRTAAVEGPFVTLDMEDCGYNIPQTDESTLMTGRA

Kd (human BACE1 ECD [1]): < 0.34 nM
Kd (murine BACE1 ECD [2]): < 0.4 nM
Kd (human BACE1 ECD [3]): < 0.8 nM
Kd (murine BACE1 ECD [4]): < 0.68 nM
IC50, Abeta x-40 in mouse cortical neurons [5]: 9.1 nM
maximal % inhibition of Abeta x-40 [5]: 71%
B1: 6300 (antibody, V domains shown)
VH: QVQLVQSGAEVKKPGSSVKVSCKASGGTLSGYAISWVRQAPGQGLEWMGNIIPGFGTANYAQKSQGRVTITADESTSTAYMELSSLRSEDTAVYYCARSGGTRYGMLDVWGQGTMVTVSS
VL: EIVLTQSPATLSVSPGERATLSCRASQSVGSNLAWYQQKPGQAPRLLIYGASTRATGIPARFSGSGSGTEFTLTISSLQSEDFAVYYCQQSFLWPPRTFGGGTKVEIK
notes: anti-BACE1 IgG

Kd [6]: 10.9 nM
koff [6]: 0.00699 s⁻¹
kon [6]: 638000 M⁻¹ s⁻¹
Kd [7]: 73.9 nM
koff [7]: 0.0373 s⁻¹
kon [7]: 505000 M⁻¹ s⁻¹
B2: Hu15G11.v1.Fab (Fab, V domains shown)
VH: EVQLVQSGAEVKKPGASVKVSCKASGYTFTSYWMHWVRQAPGQRLEWMGEINPTNGRTNYIEKFKSRVTITRDTSASTAYMELSSLRSEDTAVYYCARGTRAYHYWGQGTMVTVSS
VL: DIQMTQSPSSLSASVGDRVTITCRASDNLYSNLAWYQQKPGKAPKLLLYDATNLADGVPSRFSGSGSGTDYTLTISSLQPEDFATYYCQHFWGTPLTFGQGTKVEIK
notes: Fab

Kd [6]: 7.26 nM
koff [6]: 0.00466 s⁻¹
kon [6]: 642000 M⁻¹ s⁻¹
Kd [7]: 41.6 nM
koff [7]: 0.0201 s⁻¹
kon [7]: 483000 M⁻¹ s⁻¹
B3: Hu15G11.v3.Fab (Fab, V domains shown)
VH: EVQLVQSGAEVKKPGASVKVSCKASGYTFTSYWMHWVRQAPGQRLEWMGEINPTNGRTNYIEKFKSRVTITRDTSASTAYMELSSLRSEDTAVYYCARGTRAYHYWGQGTMVTVSS
VL: DIQMTQSPSSLSASVGDRVTITCRASDNLYSNLAWYQQKPGKSPKLLVYDATNLADGVPSRFSGSGSGTDYTLTISSLQPEDFATYYCQHFWGTPLTFGQGTKVEIK
notes: Fab

Kd [6]: 0.255 nM
koff [6]: 0.000844 s⁻¹
kon [6]: 3.32e+06 M⁻¹ s⁻¹
Kd [7]: 1.9 nM
koff [7]: 0.00331 s⁻¹
kon [7]: 1.74e+06 M⁻¹ s⁻¹
B8: Hu7A4.v12.Fab (Fab, V domains shown)
VH: EVQLVQSGAEVKKPGASVKVSCKGSGYTFTDYAMHWVRQAPGQGLEWMGGISTYFGRTNYNQKFKGRVTMTVDTSISTAYMELSRLRSDDTAVYYCARGLSGNYVMDYWGQGTTVTVSS
VL: DIVMTQSPDSLAVSLGERATINCRASESVDSYGNSFMHWYQQKPGQPPKLLIYRASNLESGVPDRFSGSGSRTDFTLTISSLQAEDVAVYYCQQSNEGPPTFGQGTKLEIK
notes: Fab

Kd [6]: 0.401 nM
koff [6]: 0.000686 s⁻¹
kon [6]: 1.71e+06 M⁻¹ s⁻¹
Kd [7]: 4.23 nM
koff [7]: 0.00342 s⁻¹
kon [7]: 808000 M⁻¹ s⁻¹
B11: Hu7A4.v9.Fab (Fab, V domains shown)
VH: EVQLVQSGAEVKKPGASVKVSCKASGYTFTDYAMHWVRQAPGQGLEWMGGISTYFGRTNYNQKFKGRVTMTRDTSISTAYMELSRLRSDDTAVYYCARGLSGNYVMDYWGQGTTVTVSS
VL: DIVMTQSPDSLAVSLGERATINCRASESVDSYGNSFMHWYQQKPGQPPKLLIYRASNLESGVPDRFSGSGSRTDFTLTISSLQAEDVAVYYCQQSNEGPPTFGQGTKLEIK
notes: Fab

EC50, FRET short substrate [10]: 3.12 nM
EC50, HTRF long substrate [10]: 1.38 nM
IC50, Abeta x-40 in mouse cortical neurons [11]: 1.63 nM
IC50, Abeta x-40 in mouse cortical neurons (5903*, second run) [11]: 7.27 nM
maximal % inhibition of Abeta x-40 [11]: 72%
B12: 5903 (antibody, V domains shown)
VH: QLQLQESGPGLVKPSETLSLTCTVSGGSISSSSYYWGWIRQPPGKGLEWIGMIYYSGSTWYNPSLKSRVTISVDTSKNQFSLKLSSVTAADTAVYYCARVGHGISYFDLWGRGTLVTVSS
VL: EIVLTQSPATLSLSPGERATLSCRASQSVSSYLAWYQQKPGQAPRLLIYDASKRATGIPARFSGSGSGTDFTLTISSLEPEDFAVYYCQQVYTWPPRTFGGGTKVEIK

Kd (human BACE1 ECD [1]): 0.32 nM
Kd (murine BACE1 ECD [2]): 0.4 nM
Kd (human BACE1 ECD [3]): 0.39 nM
Kd (murine BACE1 ECD [4]): 0.46 nM
IC50, Abeta x-40 in mouse cortical neurons [11]: 1.95 nM
maximal % inhibition of Abeta x-40 [11]: 67%
B13: 6298 (antibody, V domains shown)
VH: QLQLQESGPGLVKPSETLSLTCTVSGGSISWSSYYWSWIRQPPGKGLEWIGNIYYSGSTYYNPSLKSRVTISVDTSKNQFSLKLSSVTAADTAVYYCARLGHGYNYFDLWGRGTLVTVSS
VL: EIVLTQSPATLSLSPGERATLSCRASQSVSSYLAWFQQKPGQAPRLLIYDASNRATGIPARFSGSGSGTDFTLTISSLEPEDFAVYYCQQVYVWPPRTFGGGTKVEIK
notes: anti-BACE1 IgG

Kd (human BACE1 ECD [12]): 0.34 nM
Kd (human BACE1 ECD [13]): 0.35 nM
Kd (murine BACE1 ECD [14]): < 0.24 nM
IC50, Abeta x-40 in mouse cortical neurons [11]: 7.34 nM
maximal % inhibition of Abeta x-40 [11]: 72%
B14: 5983 (antibody, V domains shown)
VH: QLQLQESGPGLVKPSETLSLTCTVSGGSISSSSYYWGWIRQPPGKGLEWIGNIYYSGSTYYNPSLRSRVTISVDTSKNQFFLKLSSVTAADTAVYYCARLGHGYNYFDLWGRGTLVTVSS
VL: EIVLTQSPATLSLSPGERATLSCRASQSVSSYLAWFQQKPGQAPRLLIYDASNRATGIPARFSGSGSGTDFTLTISSLEPEDFAVYYCQQVYVWPPRTFGGGTKVEIK
notes: anti-BACE1 IgG

The remaining lines, values behind:

B4: D101A (antibody, V domains shown)
VH: EVQLVQSGAEVKKPGASVKVSCKGSGYTFTDYAMHWVRQAPGQGLEWMGGISTYFGRTNYNQKFKGRVTMTVDTSISTAYMELSRLRSDDTAVYYCARGLSGNYVMAYWGQGTTVTVSS
VL: DIVMTQSPDSLAVSLGERATINCRASESVDSYGNSFMHWYQQKPGQPPKLLIYRASNLESGVPDRFSGSGSRTDFTLTISSLQAEDVAVYYCQQSNEAPPTFGQGTKLEIK
notes: also called 7A4.v15 D101A (CDR-H3) IgG; copies: 2 + 2
EC50 [8]: 0.0173 µg/mL
EC50 [9]: 0.0185 µg/mL

B5: G95A (antibody, V domains shown)
VH: EVQLVQSGAEVKKPGASVKVSCKGSGYTFTDYAMHWVRQAPGQGLEWMGGISTYFGRTNYNQKFKGRVTMTVDTSISTAYMELSRLRSDDTAVYYCARALSGNYVMDYWGQGTTVTVSS
VL: DIVMTQSPDSLAVSLGERATINCRASESVDSYGNSFMHWYQQKPGQPPKLLIYRASNLESGVPDRFSGSGSRTDFTLTISSLQAEDVAVYYCQQSNEAPPTFGQGTKLEIK
notes: also called 7A4.v15 G95A (CDR-H3) IgG; copies: 2 + 2
EC50 [8]: 0.0135 µg/mL
EC50 [9]: 0.0418 µg/mL

B6: G98A (antibody, V domains shown)
VH: EVQLVQSGAEVKKPGASVKVSCKGSGYTFTDYAMHWVRQAPGQGLEWMGGISTYFGRTNYNQKFKGRVTMTVDTSISTAYMELSRLRSDDTAVYYCARGLSANYVMDYWGQGTTVTVSS
VL: DIVMTQSPDSLAVSLGERATINCRASESVDSYGNSFMHWYQQKPGQPPKLLIYRASNLESGVPDRFSGSGSRTDFTLTISSLQAEDVAVYYCQQSNEAPPTFGQGTKLEIK
notes: also called 7A4.v15 G98A (CDR-H3) IgG; copies: 2 + 2
EC50 [8]: 0.0194 µg/mL
EC50 [9]: 0.0247 µg/mL

B7: L96A (antibody, V domains shown)
VH: EVQLVQSGAEVKKPGASVKVSCKGSGYTFTDYAMHWVRQAPGQGLEWMGGISTYFGRTNYNQKFKGRVTMTVDTSISTAYMELSRLRSDDTAVYYCARGASGNYVMDYWGQGTTVTVSS
VL: DIVMTQSPDSLAVSLGERATINCRASESVDSYGNSFMHWYQQKPGQPPKLLIYRASNLESGVPDRFSGSGSRTDFTLTISSLQAEDVAVYYCQQSNEAPPTFGQGTKLEIK
notes: also called 7A4.v15 L96A (CDR-H3) IgG; copies: 2 + 2
EC50 [8]: 0.0155 µg/mL
EC50 [9]: 0.0287 µg/mL

B9: E93A (antibody, V domains shown)
VH: EVQLVQSGAEVKKPGASVKVSCKGSGYTFTDYAMHWVRQAPGQGLEWMGGISTYFGRTNYNQKFKGRVTMTVDTSISTAYMELSRLRSDDTAVYYCARGLSGNYVMDYWGQGTTVTVSS
VL: DIVMTQSPDSLAVSLGERATINCRASESVDSYGNSFMHWYQQKPGQPPKLLIYRASNLESGVPDRFSGSGSRTDFTLTISSLQAEDVAVYYCQQSNAAPPTFGQGTKLEIK
notes: also called 7A4.v15 E93A (CDR-L3) IgG
EC50 [8]: 0.0122 µg/mL
EC50 [9]: 0.0176 µg/mL

B10: M100bA (antibody, V domains shown)
VH: EVQLVQSGAEVKKPGASVKVSCKGSGYTFTDYAMHWVRQAPGQGLEWMGGISTYFGRTNYNQKFKGRVTMTVDTSISTAYMELSRLRSDDTAVYYCARGLSGNYVADYWGQGTTVTVSS
VL: DIVMTQSPDSLAVSLGERATINCRASESVDSYGNSFMHWYQQKPGQPPKLLIYRASNLESGVPDRFSGSGSRTDFTLTISSLQAEDVAVYYCQQSNEAPPTFGQGTKLEIK
notes: also called 7A4.v15 M100bA (CDR-H3) IgG; copies: 2 + 2
EC50 [8]: 0.0161 µg/mL
EC50 [9]: 0.0169 µg/mL
